Measurements published in patent US20040253242A1.

Target: cMpl receptor (human (cloned from Tf-1 cells, a human cell line)) (UniProt P40238)
Assay: cell-based or functional assay

TPO (from UniProt P40225 22-353) (ligand)
Relative Fold Luciferase activity (c-Fos promoter), CMpl-R transfected NIH3T3 cells; +TPO: 2.32 fold
